Among the data in a protein production outcome set (Wang et al. 2014) are protein production values, retold here.

The series is described as follows: label from the status in PepcDB records.
With “MDLVLDLLATVSRWSRSNLSEISLALVGCLLVLFGTDVKAWAEQRLGGLAGALRVPFMALMVMIGSGAALIYATPWVVKGLSQFNNYALAPVLLVVLVLIGVVADRRG”, the protein production result was “failed”. As for “MANETPKRRILVIRIDFLGDMLCTTAFLGALKRRWPDAELHVVANRYNASALDGNPDVHAVHTYVYSRQCERNDRPGRMRAFFDRLRLVRRLRRLRFDLVVVPNGGMHRSSIQLARQLGVKDCRWHDADSEFDDRKPEHVASRPMCHEALSGFRLVPELGRNDLDGLALSVHPDRALLDTWYRLLGARAKPRVGLFVSNKATERRWPADRWCDLGRRLAPFADVIVFRDPAVSAGAGADGDAWRDVNARHVAPSSVAELVAAASLLDAIVSADSAPVHLASALGVPVAALFEDRPEKYRRWHPLGVPHMILRAGATVDAIGVDAVERAVLHLLEKAGQADDATGGALPLPDVTLVVPAVGAIVS”, the entry is “failed”.

As for “MDRIVEIEKYSFDETYETSLRPSNFDGYIGQESIKKNLNVFIAAAKKRNECLDHILFSGPAGLGKTTLANIISYEMSANIKTTAAPMIEKSGDLAAILTNLSEGDILFIDEIHRLSPAIEEVLYPAMEDYRLDIIIGSGPAAQTIKIDLPKFTLIGATTRAGMLSNPLRDRFGMQFRLEFYKDSELALILQKAALKLNKTCEEKAALEIAKRSRSTPRIALRLLKRVRDFADVNDEEIITEKRANEALNSLGVNELGFDAMDLRYLELLTAAKQKPIGLASIAAALSEDENTIEDVIEPYLLANGYIERTAKGRIASAKSYSALKLNYEKTLFEE”, the protein production result is “not failed”. As for “MNMVEPLAVAILIAYLVALLLIGLLSSKKSSVGMTDFFIAGRNLNKWTVALSAVSSGRSAWLVLGVTGTAYATGLDAVWAVAGYITVEVFLFFYVARRFRAYSEQTGSITIPDILETRFNDKTHILRGGSAFIIMFFMIAYVASQLVAGGGAFATSMGVSSSTGMWVTAVILLAYTMLGGFHAVSKTDVVQAGFMFVSLVILPVVAIIGLGGFDPLLQVMHTEGGGFTSPFAFGFGAVIGLLGIGFGSPGNPHILVRYMSLKNVKEMRQAALISSVWNVLMGWGAVMIGLAGRAYFPDVSLLPNGDQEQVFLMLGSEILHPLFFGFLLVAVLAAIMSSADSQLLVGSSAFVRDIYQKMFRRNRKLSQKKLVRLSRLTTVVFMGLSLILAFTAQEFVFWMVLFAFGGLGACFGPALLLSFYWKGVTRQGVLWGMIAGLLTVILVKQQPQWTYAFLPDVKELLNTYFFGITYEAVPGFIVATTITVVISLFTKRPKHAKQIIERLNESA”, the entry is “failed”. The result for “MDQTIHHQIQQALHFRTAVRVYKEEKISDEDLALILDAAWLSPSSIGLEGWRFVVLDNKPIKEEIKPFAWGAQYQLETASHFILLIAEKHARYDSPAIKNSLLRRGIKEGDGLNSRLKLYESFQKEDMDMADNPRALFDWTAKQTYIALGNMMMTAALLGIDTCPIEGFHYDKVNHILAKHNVIDLEKEGIASMLSLGYRLRDPKHAQVRKPKEEVISVVK” reads “not failed”; that for “MAACPELVDATFAILASGWHSTAVEVGGRWVFKFPRGAEAEAALLREAAVLRLVRPAVSLPVPAPQVFAGPPLFSRHEKLPGGYLLGEDYRRLDEPARQAVGDALGRFYAELHRLPPARMRAVGALPVRPWESPAAMRRRALPLLPAAWRERAERLVREYAKLPADPLGSIFGFFDGHGWNMAFDSEAGRLNGVYDFADAGIGPLHQEFIYSAFIDADLTERIVAAYERFSGRRLERRRIALLTAAHRLSELAELADEPRHLPDMLAGALDGLALAEAQGLA”, “failed”.

Consider “GRLRTDAVRAFCTTIVEATAPYACAFKPNFAFFEALGPAGLTVLDQVVTTIPDDCLVLGDAKRGDIGHSARHYAASIYEELGLDACTVSPYLGRDSVMPFLEHEGTCTFVLARTSNDGAADLQEACTCDGTPLYRHVARRVQAWNADAPGGAGLVVGATAPAALQDLRSLCPSLPFLVPGVGAQGGDAAAVMDAAATDEGPVLVNSSRSILYASEGPNYANAAADAARALRDALNG”, for which the protein production entry is listed as “failed”. On to “MWSGVVTERKISRRLRLIKRVREEYVRDDVSCGFECCGGPCRASGKASVFAIPDANVVSRYRALLKSDYVAAIICQSVLSELSKNDERGLRDVARERGYPVFCDSFCRSTHGKGLEGVLEFYRAHLPQHNFTILDIGNIGEYGRYVSDDIRDLLENVDEKEATEYEEYVENLDILYGRKGLYRGTLEVSMYNCYSGFVVDGDVKVLVVGKKNMNRALSGDEVYVEVVDEYDEDGILLDNEEGTQETRKGAAGEGVFGKVVGIHRRKCRAVIGSISPRTVHGDGAQNVLVIPIDRRIPAIRIRTSQAEELMNKRLCVEIDGWERTSNYPSGHYYRRLGTLGDRNAEMEAVLVANGITYYNKNWAEILRVPWMNEDIFGMEKAYNEVREGTREDFRELSIVSIDPPDCEDIDDALHCRLLPNGNWEVGVHIADVTYYVTKGSEIDKIAADRGTTIYLPEWRIDMLPPALSTDLCSLVAGKDRAAFSVVWEMSSDVRVVRTHFCRSLIRSKRSFSYNEAYDAVQGLVDAGDEVSRSLRMLLEISRVLRSRRFAKGSLDLSTRQLVFREGGFEMKEYFPTNFLVEEFMVLANISVASFIYHHHPDSSLLRKHPPPSVLDIGLDIDTSSPRALSESLEKMEGVRKDLAKRMLIRSMNQAVYVVSGETPSLHHYGLATPIYTHFTSPIRRYADIIVHRILNHILQTAPTKEAQINKLGIVTFRARKRTDGESMDEVFVDEDMCRNMNSRHRAARKAAWECDKLTVYMALRNEEPVVRGFVTNIKPNGIVVYVPEYSLEEVVVSEGCFEMFQEVWVKIRRDDEKFFLRRRFTFEIVGLSSPC”, for which the protein production result is “failed”. “MEIFFTILIMTLVVSLSGVVTRVMPFQIPLPLMQIAIGALLAWPTFGLHVEFDPELFLVLFIPPLLFADGWKTPTREFLEHGREIFGLALALVVVTVVGIGFLIYWVVPGIPLIPAFALAAVLSPTDAVALSGIVGEGRIPKKIMGILQGEALMNDASGLVSLKFAVAVAMGTMIFTVGGATVEFMKVAIGGILAGFVVSWLYGRSLRFLSRWGGDEPATQIVLLFLLPFASYLIAEHIGVSGILAAVAAGMTITRSGVMRRAPLAMRLRANSTWAMLEFVFNGMVFLLLGLQLPGILETSLMAAEIDPNVEIWMLFTNIILIYAALMLVRFGWLWTMKKFSNRFLKKKPMEFGSWTTREILIASFAGVRGAITLAGVLSIPLLLPDGNVFPARYELVFLAAGVILFSLFVGVVMLPILLQHIEVADHSQQLKEERIARAATAEVAIVAIQKMEERLAADTEENIDNQLLTEVSSRVIGNLRRRADGRNDVESSVQEENLERRFRLAALRSERAELYHLRATREISNETLQKLLHDLDLLEALLIEENQ”: the protein production entry is “failed”. As for “MTTDAPALLPALQARVRETAHARTPAGCPCGAATLADRPDATVVRHAGTVAKAHAADADPAELSLRVTAAARLPGVLLPPLAPAPVDLHGRLVTYWPYGTPVDPEDPDAAPWEAAATLLARLHRTPVPAALPPMRGPAKAARAAARLSDTARDHPATAPVLAAWAALPAWARGEAAMPGPAALCHGDLHLGQLIRHPAPDGPWLLIDVDDLGTGVPAWDLARPAAWYACGLLPPEEWHRFLTAYRAAGGPAVPAEGDPWPALDVPARALTAQTAARAVAKAVLAGRALDEVERSLVDACARMASVRPADPRG”, the protein production entry is recorded as “failed”. For “MKNKIILGCLAAAACEILFGLSFIFTKSITAQASGLALISWRFVTAFFFVNLYLLTKRQKVVINGRNIKPLIRIAILNPIIYFICETIGIRMTTASESGAFLACIPVVALIMSSLILKEWPSRWQVVGVATTLIGIIIAVFAAGGSTNFSLVGYFILGLAVVSYALYCVDVEKASQFTSFEITYFMLASGCLTFGLFALSHSFLAGNLKELLTLPWSNPKFAITILYQGLGCSVIGYILSNFAIATIGVNRTASFIGISTIISILAAVVFLGEPFSQLQILAGILVVLGVYVANKN”, the protein production entry was “failed”.

Turning to “HKEDKEDFAELSGIAVPAEITAEDGTMFKEALLFTHRGLSGPSVLQISSFWKAGQKVSINLVPNEDIALLLERSLEKHPNQSLKNTLAKVLPKRLVEVLIERKELMDKPLKQFNPKELASVVERLENWSIAPNGTEGYRTAEVTLGGVDTDHLSSKTMECKNIKGLYFIGEVMDVTGWLGGYNFQWCWSSGFVAGQWV”, the protein production result is given as “failed”.

For the sequence “MVGQREPAPVEEVKPAPEQPAEPQQPVPTVPSVPTIPQQPGPIEHEDQTAPPAPHIRHYDWNGAMQPMVSKMLGADGVTAGSVLLVDSVNNRTNGSLNAAEATETLRNALANNGKFTLVSAQQLSMAKQQLGLSPQDSLGTRSKAIGIARNVGAHYVLYSSASGNVNAPTLQMQLMLVQTGEIIWSGKGAVSQQLEHHHHHH”, the protein production result was “not failed”. “MDNVIKLVPSRWVSESVLMSISGLKKNTIKTARETSWMEGLEYKHVAPDGQPYDNSMCFYNRDEIDKWIERQPAAISRKKSA”: the protein production entry is on record as “failed”. As for “MSRYDITGSEGEYEPGSDNKVLRNLPGITDPEEMNIVETDLLEDLYLQVFDNFPEELTFETLCQWHRAWLGNVYSWAGQSRTVDMSKPNIRFASPVQIPKLAEKFEARYLPRFAELPEMTDEELVAFLAEVHVEFILIHPFREGNGRISRLLLDVMAAKAGAEPLDYSLWDEHKDFYFKAIQAGRDGDYQHVERLIRDVLEAQQ”, the entry is “failed”. As for “MDVPSPCNVLMLYPLFTAESFWSFGESCKLMGVKRPAAPLGLITVAAMLPADWTVRLIDCNTSPLGDEDLAWADVVFTGGMLPQQADTLRLIELCRAAGKPVVVGGPDPTSSPHIYERADFRVLGEAESVIDEFIAAWEGGARSGVFTAPKFQADVTRTPVPRFDLLKFEDYLYIGVQYSRGCPFTCEFCDIIELYGRVPRTKTAEQMFVELETLYRMGYRGHLDFVDDNFIGNKKSLRLFLPQLAEWQRAHGYPFEFSTEASINLADDPELLEQMGAANFFGIFVGIESPDPATLVAMRKKQNTRRNIAESIHKIYAAGILVTAGFIVGFDNEKVSMAEAMIEFIEEAAIPVSMVGLLYALPNTQLTRRLEREGRLHPGHDLAPTIGADQCTDGINFDPVRPLRDILMDYKRVLERIYSPAAYAGRIDRLMTLLDRSRQRHALAEGDIRAKLGAMETVHRVVTAIPEARGPLWQTFMNCAKRDTSSARIAVQMIAAYAHLGPFSRKVIDAIDARLAALDDETVIPAATIDATAARHLA”, the entry is “failed”; as for “MLELKNENLTVQFSELGGQIISIKDKDGIEYLWQGEPTYWSGQAPVLFPICGSLRNDWAIYEPAERPTFTGTIPRHGLVRKMLFKNVKSTENSLEFSISSNEETVKNYPFEFELSINYSLFGKTIRIEYRVKNLEGHRKLPYFIGGHPGFNCPLLDGESYEDYYLEFEKVESCTVPRSFPETGLLDLRDRRPFLENQKTLDLSYKLFEYDAITLDQLASRKVTLKSKNHQKKLSIAFDDFPYLVIWSTTNQSPFIALEPWSGLSTSLEESDIFNAKRNISYVAPKEVDTKYFDIIIE”, “failed”; as for “MKKTGWGILGAVAAFTGYAYWSTKHLTVTDYEILSDKIPAEWDGATFVQLSDLHSASFGLYNNPLLSIVNELAPDAVFLTGDMIDGDESPFVTMAVVRKLAKEFPVFYVSGNHEGRSAFYEDFKADMEKHHVAVLENERYFLRKDGAAIMVAGVKDPRFVRDDWAEKELPKQVWEEEALKEALDEATANLSPDYFTILLAHRPEFWPLYQAYPVDLVLSGHAHGGQFRLPLTEGLFAPGQGFMPKWTAGLHSAGGKSLIVSRGLGNVTKLPRLFNDPEIIRITLKAKGDARENLEHHHHHH”, “failed”.

Take “MAPETLAPDTTGLEVRLRLTDDWFTACDLGALLPGRGVAALLPDGGQVALFRDRDGGLYAIDNRDPFTGAAVLSRGLTGTHQGRPFVASPLLKQRFDLTTGECLDDAAMRVETYRVQAVRAVPAVNAVNPALEHHHHHH”: the protein production entry is listed as “failed”. For “MVWDRATPFVIDLNVGAEDIDGLGHANNAVYVSWLERCAWRHSQFLGLDLTEYQRLDRAMAVVRHEIDYLASAYESDELQLATWITDWDRRLKMTRCFQLKRPADNLTLLRAQTTFVCIELSSGRPKRMPAEFIEGYGAAIPLEHHHHHH”, the protein production entry is given as “failed”.
